The data set deals with the molecule itself. Description: single particle fluorescence intensity (stoichiometry) analysis of confocal images; same bilayer and images as a1; event intensity normalised by the monomer brightness measured by FCS and binned into putative monomers, dimers, etc.

One protein from PMC8348223, “Direct Measurement of the Affinity between tBid and Bax in a Mitochondria-Like Membrane” (International Journal of Molecular Sciences, 2021) can be followed below.

B1: Bax 47C labelled with HyLite488 (Bax-HyLite488) (natural protein, human, UniProt Q07812 1-192, looked up)
chain: MDGSGEQPRGGGPTSSEQIMKTGALLLQGFIQDRAGRMGGEAPELACDPVPQDASTKKLSEALKRIGDELDSNMELQRMIAAVDTDSPREVFFRVAADMFSDGNFNWGRVVALFYFASKLVLKALATKVPELIRTIMGWTLDFLRERLLGWIQDQGGWDGLLSYFGTPTWQTVTIFVAGVLTASLTIWKKMG
modifications: HyLite488 bound by maleimide chemistry to the cysteine at position 47
notes: full-length human Bax; the two endogenous cysteines (62 and 126) are replaced with alanine, and leucine 47 is changed to cysteine; Labelling efficiency 81%; also called Bax-HiLyte488
As for B1, the binding result was “binds”.
